Here are results for 2 substances from publication PMC10468207.

The target of assay [1] is kinase-dead CaMKII (K42R and D135N double mutant) with C-terminal AviTag (human) (UniProt Q9UQM7). The experiment in a line: mass photometry; 400 nM CaMKII, activating conditions (8 µM CaMKII incubated with 1.5 µM Ca2+:CaM, 1 mM ATP, 2 mM MgCl2 for 5 min at room temperature, then diluted); 25 mM Tris pH 8, 150 mM KCl, 1 mM TCEP.
For assay [2] the target is unchanged. The experiment in a line: SEC; Superose 6 10/300 increase column; SEC buffer 25 mM Tris pH 8, 250 mM NaCl, 1% glycerol, 1 mM TCEP; assembly of subunits into the holoenzyme. (In general: SEC sorts molecules by how far they enter the pores of the column.)
For assay [3] the target is unchanged. The experiment in a line: mass photometry; 400 nM CaMKII, basal conditions; 25 mM Tris pH 8, 150 mM KCl, 1 mM TCEP; Refeyn One MP.
In the next assay the target is CaMKII^F394BzF (human) (UniProt Q9UQM7). The experiment in a line: SEC; Superose 6 10/300 increase column; SEC buffer 25 mM Tris pH 8, 250 mM NaCl, 1% glycerol, 1 mM TCEP; assembly of subunits into the holoenzyme.

The stoichiometry N is the number of molecules, sites or subunits per partner or assembly. “kinase-dead CaMKII (K42R and D135N double mutant) with C-terminal AviTag (from UniProt Q9UQM7 6-478) (enzyme)” gave a percent in the tetramer peak in assay [1] of 12%. Moreover, the stoichiometry N in assay [1] worked out at 4; in assay [2], 12; in assay [3], 10.

Substance “CaMKII^F394BzF (from UniProt Q9UQM7 6-478) (enzyme)” had a stoichiometry N in the assay with CaMKII^F394BzF (human) of 12.
